Results: publication PMC5942852

How the values were obtained:
CH103 (human) [1] = assay: SPR; Biacore 4000, CM5 chip; IgG captured on amine-coupled anti-human capture antibody (Human Antibody Capture Kit), antigen as analyte; 1x HBS-EP+ pH 7.4 with BSA 1 mg/ml; equilibrium or kinetic Langmuir model; apparent KD
[2] = target: CH103 WT with the H2-6 residue at position 67 (E->Y) (human); assay: SPR; ProteOn XPR36 (Bio-Rad), GLC chip; IgG captured on amine-coupled anti-human capture antibody (Human Antibody Capture Kit), antigen as analyte; 1x HBS-EP+ pH 7.4 with BSA 1 mg/ml; equilibrium or kinetic Langmuir model
Sequence of CH103 WT with the H2-6 residue at position 67 (E->Y) (human) (heavy, as listed by the source, chain 1 of 2): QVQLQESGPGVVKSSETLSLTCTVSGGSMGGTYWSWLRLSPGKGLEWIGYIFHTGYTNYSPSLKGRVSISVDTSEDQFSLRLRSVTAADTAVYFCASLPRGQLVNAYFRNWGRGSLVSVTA
Sequence of CH103 WT with the H2-6 residue at position 67 (E->Y) (human) (light, as listed by the source, chain 2 of 2): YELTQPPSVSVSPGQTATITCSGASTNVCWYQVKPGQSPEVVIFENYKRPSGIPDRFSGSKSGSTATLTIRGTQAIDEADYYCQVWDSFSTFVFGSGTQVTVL

[3] = target: H2-6 position 67 mutant (Y->E) (human); assay: as above
Sequence of H2-6 position 67 mutant (Y->E) (human) (heavy, as listed by the source, chain 1 of 2): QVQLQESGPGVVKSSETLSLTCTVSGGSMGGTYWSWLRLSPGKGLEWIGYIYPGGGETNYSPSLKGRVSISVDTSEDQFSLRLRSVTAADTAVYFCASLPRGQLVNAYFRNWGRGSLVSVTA
Sequence of H2-6 position 67 mutant (Y->E) (human) (light, as listed by the source, chain 2 of 2): as the sequence (light, as listed by the source, chain 2 of 2) above

[4] = target: H2-6 position 59 mutant (Y->F) (human); assay: as above
Sequence of H2-6 position 59 mutant (Y->F) (human) (heavy, as listed by the source, chain 1 of 2): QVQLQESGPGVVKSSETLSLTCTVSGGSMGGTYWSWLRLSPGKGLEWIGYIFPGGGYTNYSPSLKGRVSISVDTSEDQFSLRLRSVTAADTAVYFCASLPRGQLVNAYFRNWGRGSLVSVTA
Sequence of H2-6 position 59 mutant (Y->F) (human) (light, as listed by the source, chain 2 of 2): as the sequence (light, as listed by the source, chain 2 of 2) above

CH103 (human) [5] = assay: as above

Sequence of CH103 (human) (heavy, as listed by the source, chain 1 of 2): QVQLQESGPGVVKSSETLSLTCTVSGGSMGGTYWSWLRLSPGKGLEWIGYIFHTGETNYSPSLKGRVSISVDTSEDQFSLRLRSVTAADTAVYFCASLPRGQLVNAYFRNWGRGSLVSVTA
Sequence of CH103 (human) (light, as listed by the source, chain 2 of 2): as the sequence (light, as listed by the source, chain 2 of 2) above

Row | Substance | Kd (CH103 (human) [1]) [nM] | Kd [2] [nM] | Kd [3] [nM] | Kd [4] [nM] | Kd (CH103 (human) [5]) [nM]
1 | gp120 Core Bal (domain or fragment) | 91 | 11.7 | 212 | 12.8 | 1100
2 | gp120 Core HXB2 (domain or fragment) | 52 | 2.3 | 30.9 | 2.2 | 138
